T1: human FcγRIIA (H131) (human, UniProt P12318 34-317)
T1 construct: whole, on cells; Allelic variant with His at 131 (mature numbering as printed)
T1 sequence (looked up): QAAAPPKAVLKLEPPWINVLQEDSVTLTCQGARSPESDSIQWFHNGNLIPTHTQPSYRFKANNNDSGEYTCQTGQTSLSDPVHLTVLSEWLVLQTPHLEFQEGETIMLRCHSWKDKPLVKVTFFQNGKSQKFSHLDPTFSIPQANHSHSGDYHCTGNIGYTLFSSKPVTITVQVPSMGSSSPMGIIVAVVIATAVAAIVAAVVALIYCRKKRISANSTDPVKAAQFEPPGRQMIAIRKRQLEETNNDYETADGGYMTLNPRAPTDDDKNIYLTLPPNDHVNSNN

T2: human FcγRIIA(R131) (human, UniProt P12318 34-317)
T2 construct: whole, on cells; Allelic variant with Arg at 131 (so in the source)
T2 sequence (looked up): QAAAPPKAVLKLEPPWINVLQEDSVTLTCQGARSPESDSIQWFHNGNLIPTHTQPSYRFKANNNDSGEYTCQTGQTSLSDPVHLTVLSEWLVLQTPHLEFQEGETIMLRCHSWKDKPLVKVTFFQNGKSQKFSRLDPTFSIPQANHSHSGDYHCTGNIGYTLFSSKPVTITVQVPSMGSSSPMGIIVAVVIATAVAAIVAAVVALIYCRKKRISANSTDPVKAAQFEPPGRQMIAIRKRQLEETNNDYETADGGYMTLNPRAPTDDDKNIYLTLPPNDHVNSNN

T3: human FcγRIIB (human, UniProt P31994 43-310)
T3 construct: whole, on cells; also called hFcγRIIB
T3 sequence (looked up): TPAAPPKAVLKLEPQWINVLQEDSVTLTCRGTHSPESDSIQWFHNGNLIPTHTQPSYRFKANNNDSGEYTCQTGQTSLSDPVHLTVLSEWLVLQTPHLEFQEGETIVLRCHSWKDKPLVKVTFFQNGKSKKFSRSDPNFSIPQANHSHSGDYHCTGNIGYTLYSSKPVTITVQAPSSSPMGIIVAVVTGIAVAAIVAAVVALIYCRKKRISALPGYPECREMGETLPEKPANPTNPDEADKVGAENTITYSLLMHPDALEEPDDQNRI


Experiments:
human FcγRIIA (H131) = molecular target: T1, human FcγRIIA (H131); assay: flow cytometry, monomeric IgG on CHO cells expressing the receptor
Experimental: (§1) Monomeric IgG binding was tested by incubating the #2B, #2B1 and #2B2 antibodies (100 ng/mL) with 1×10⁵ CHO cells stably expressing human FcγRs for 30 min on ice. The cells were then washed, detached, fixed, and analyzed by flow cytometry (FACSCalibur; BD Biosciences).
(§2) The binding of monomeric #2B, #2B1 and #2B2 to human FcγRs was tested by flow cytometry by incubating the mAbs with CHO cells stably expressing human FcγRI, FcγRIIA (H131), FcγRIIA(R131), FcγRIIB, FcγRIIIA(F176), FcγRIIIA(V176), FcγRIIIB(NA1), FcγRIIIB(NA2), and FcγRIIIB(SH), (REF P. Bruhns). As presented in FIG. 9, #2B is binding to hFcγRI and hFcγRIIIA(V176) only, whereas no monomeric binding of #2B1 and #2B2 to all tested hFcγRs was observed. Antibody-antigen immune complex was tested by first incubating the mAb with the antigen and then, incubating the immune complexes formed with CHO cells stably expressing human FcγRs. The immune complexe of #2B is binding to all tested hFcγRs, except hFcγRIIB (FIG. 10). Weak binding is observed for immune complex of #2B1 to hFcγRIIIA(V176) (data not shown), whereas no immune complex binding of #2B2 to any tested hFcγRs (data not shown).

human FcγRIIIA(V176) [1] = molecular target: T4, human FcγRIIIA(V176) (human, UniProt P08637 17-254); assay: as above
T4 construct: whole, on cells; also called hFcγRIIIA(V176)
T4 sequence (P08637 17-254 F176V limits assumed): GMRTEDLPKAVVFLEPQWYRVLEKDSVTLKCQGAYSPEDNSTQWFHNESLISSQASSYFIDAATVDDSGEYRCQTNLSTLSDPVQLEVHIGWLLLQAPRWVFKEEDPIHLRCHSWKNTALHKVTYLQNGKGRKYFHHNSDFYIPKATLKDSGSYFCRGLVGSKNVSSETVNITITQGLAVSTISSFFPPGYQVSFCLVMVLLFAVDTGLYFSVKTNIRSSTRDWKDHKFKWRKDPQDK
Experimental: as §1, §2

human FcγRIIIB(SH) = molecular target: T5, human FcγRIIIB(SH) (human, UniProt O75015 17-200); assay: as above
T5 construct: whole, on cells
T5 sequence (O75015 17-200 N65S/A78D): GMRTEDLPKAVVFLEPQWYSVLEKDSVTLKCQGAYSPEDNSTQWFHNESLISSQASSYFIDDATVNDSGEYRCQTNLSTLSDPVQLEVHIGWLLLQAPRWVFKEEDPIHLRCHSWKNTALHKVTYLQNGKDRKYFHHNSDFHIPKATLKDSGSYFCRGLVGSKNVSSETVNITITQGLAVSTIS
Experimental: as §1, §2

human FcγRIIA(R131) = molecular target: T2, human FcγRIIA(R131); assay: as above
Experimental: as §1, §2

human FcγRIIIB(NA1) = molecular target: T6, human FcγRIIIB(NA1) (human, UniProt O75015 17-200); assay: as above
T6 construct: whole, on cells
T6 sequence (O75015 other isoform, or with tags, fused parts or gaps): as the sequence (O75015 17-200 N65S/A78D) above, with S20R, S49N, D62A, N66D, I90V counted along it
Experimental: as §1, §2

human FcγRIIB = molecular target: T3, human FcγRIIB; assay: as above
Experimental: as §1, §2

human FcγRIIIA(F176) = molecular target: T7, human FcγRIIIA(F176) (human, UniProt P08637 17-254); assay: as above
T7 construct: whole, on cells
T7 sequence (P08637 17-254): as the sequence (P08637 17-254 F176V limits assumed) above, with V160F counted along it
Experimental: as §1, §2

human FcγRI [2] = molecular target: T8, human FcγRI (human, UniProt P12314 16-374); assay: as above
T8 construct: whole, on cells; also called hFcγRI
T8 sequence (P12314 16-374): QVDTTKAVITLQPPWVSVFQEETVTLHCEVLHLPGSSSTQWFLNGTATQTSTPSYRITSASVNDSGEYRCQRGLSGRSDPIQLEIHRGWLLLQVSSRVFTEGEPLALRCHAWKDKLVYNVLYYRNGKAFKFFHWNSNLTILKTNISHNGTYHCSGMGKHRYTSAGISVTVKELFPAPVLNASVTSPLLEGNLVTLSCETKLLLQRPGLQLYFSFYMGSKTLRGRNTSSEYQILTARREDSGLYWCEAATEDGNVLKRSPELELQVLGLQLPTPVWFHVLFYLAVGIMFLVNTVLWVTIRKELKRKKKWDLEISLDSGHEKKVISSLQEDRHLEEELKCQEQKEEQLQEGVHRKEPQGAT
Experimental: as §1, §2

human FcγRIIIB(NA2) = molecular target: T9, human FcγRIIIB(NA2) (human, UniProt O75015 17-200); assay: as above
T9 construct: whole, on cells
T9 sequence (O75015 17-200 N65S): as the sequence (O75015 17-200 N65S/A78D) above, with D62A counted along it
Experimental: as §1, §2

[3] = molecular target: T10, recombinant human pro-sPLA2-GIB (human, UniProt P04054 16-148); assay: SPR (BIAcore 2000), antibody captured, antigen in solution
T10 construct: also called pro-sPLA2-IB; proPLA2-GIB
T10 sequence (P04054 16-148): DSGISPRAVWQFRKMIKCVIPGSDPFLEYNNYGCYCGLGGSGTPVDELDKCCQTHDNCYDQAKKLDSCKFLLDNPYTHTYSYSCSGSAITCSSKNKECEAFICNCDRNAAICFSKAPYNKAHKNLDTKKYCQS
Experimental: (§3) The affinity constants (KD) of the pro-sPLA2-GIB and sPLA2-GIB binding to the #2B, #2B1 and #2B2 antibodies were determined by surface kinetics on a real-time biosensor surface plasmon resonance assay (BIAcore™). More specifically, the affinity of the antibodies for human pro-sPLA2-IB and sPLA2-IB was measured using a BIAcore® 2000. The antibody was captured on an anti-mouse IgG surface and exposed to various concentrations of recombinant pro-sPLA2-IB and sPLA2-IB protein. Kinetic analysis using BIAevaluation™ software was performed to obtain the association and dissociation rate constants.
as §3, with “to” for “to the #2B,”, “#2B2” for “#2B2 antibodies”, “(BIAcore™).” for “(BIAcore™). More specifically, the affinity of the antibodies for human pro-sPLA2-IB and sPLA2-IB was measured using a BIAcore® 2000.”, “constants (Table 7).” for “constants.”

[4] = molecular target: T11, recombinant human sPLA2-GIB (mature secreted group IB pancreatic phospholipase A2) (human, UniProt P04054 23-148); assay: as above
T11 construct: also called sPLA2-IB; PLA2-GIB mature form
T11 sequence (P04054 23-148): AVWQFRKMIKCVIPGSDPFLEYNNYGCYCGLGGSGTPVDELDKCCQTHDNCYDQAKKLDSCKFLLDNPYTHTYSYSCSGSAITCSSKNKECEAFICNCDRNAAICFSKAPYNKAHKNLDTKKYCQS
Experimental: as §3
as §3, with “to” for “to the #2B,”, “#2B2” for “#2B2 antibodies”, “(BIAcore™).” for “(BIAcore™). More specifically, the affinity of the antibodies for human pro-sPLA2-IB and sPLA2-IB was measured using a BIAcore® 2000.”, “constants (Table 7).” for “constants.”

[5] = molecular target: T11, recombinant human sPLA2-GIB (mature …); assay: cell-based or functional assay
[6] = molecular target: T10, recombinant human pro-sPLA2-GIB; assay: competitive ELISA: constant antibody premixed with dilutions of soluble antigen, free antibody caught on antigen-coated plate
Experimental: (§4) Binding affinities of the humanized antibodies to pro-sPLA2-GIB and sPLA2-GIB were measured by plate-based competition immunoassay. For the competition ELISA, briefly, constant amounts of antibody at different levels were premixed with serial dilutions of antigen protein, human sPLA2-GIB or pro-sPLA2-GIB, ranging from 0 to 10 μg/ml, and incubated for two hours at room temperature to reach pseudo-binding equilibrium between the antibody and antigen. These solutions were then transferred to 96-well sPLA2-GIB or pro-sPLA2-GIB pre-coated plates to allow the free-antibody in the mixtures to bind to plate-coated sPLA2-GIB or pro-sPLA2-GIB. The plates were typically coated with 30 to 100 ng of human sPLA2-GIB or pro-sPLA2-GIB protein in PBS solution overnight at 4° C. followed by BSA nonspecific blocking. After washing off excess antibody in solution, plate-bound antibodies were detected with an HRP-conjugated goat anti-mouse IgG or IgA polyclonal antibody reagent and developed using colorimetric substrate. The dependency of the signals on the concentrations of antigen in solution was analyzed with a 4-parameter fit analysis using Prism™ software (Graph Pad) and reported as IC50.
(§5) The respective binding affinities of the humanized antibodies to human pro-sPLA2-GIB and human sPLA2-GIB were measured by plate-based competition immunoassay. Briefly, constant amounts of antibody at different levels were premixed with serial dilutions of antigen proteins to reach pseudo-binding equilibrium between the antibody and antigen. These solutions were then transferred to antigen pre-coated plates to allow the free-antibody in the mixtures to bind to plate-coated sPLA2-GIB or pro-sPLA2-GIB. Plate-bound antibodies were detected with an HRP-conjugated polyclonal antibody. Data were fitted with a 4PL logistic non-linear regression model and the relative IC50 values were estimated from the model (Table 4).

[7] = molecular target: T11, recombinant human sPLA2-GIB (mature …); assay: as above
Experimental: as §4, §5

human FcγRIIIA(V176) [8] = molecular target: T4, human FcγRIIIA(V176); assay: flow cytometry, monomeric IgG (100 ng/mL) on CHO cells expressing the receptor
Experimental: as §1, §2

human FcγRI [9] = molecular target: T8, human FcγRI; assay: as above
Experimental: as §1, §2

Binder | binding result (human FcγRIIA (H131)) | binding result (human FcγRIIIA(V176) [1]) | binding result (human FcγRIIIB(SH)) | binding result (human FcγRIIA(R131)) | binding result (human FcγRIIIB(NA1)) | binding result (human FcγRIIB) | binding result (human FcγRIIIA(F176)) | binding result (human FcγRI [2]) | binding result (human FcγRIIIB(NA2)) | Kd [3] [nM] | koff [3] [s⁻¹] | kon [3] [M⁻¹ s⁻¹] | t½ [3] [min] | Kd [4] [nM] | koff [4] [s⁻¹] | kon [4] [M⁻¹ s⁻¹] | t½ [4] [min] | also measured
humanized antibody #2B1 (mutations L234A & L235E) (antibody, human IgG1, kappa, #2B with L234A and L235E in the heavy chain constant region; also called Ab #2B1; copies: 2 + 2) heavy: not shown light: EIVMTQSPATLSVSPGERATLSCKASQDVSTAVAWYQQKPGQAPRLLIYWASTRHTGIPARFSGSRSGTEYTLTISSLQSEDFAVYYCQQDYSTPPTFGGGTKVEIKRTVAAPSVFIFPPSDEQLKSGTASVVCLLNNFYPREAKVQWKVDNALQSGNSQESVTEQDSKDSTYSLSSTLTLSKADYEKHKVYACEVTHQGLSSPVTKSFNRGEC | no binding (tested: 100 ng/mL) | no binding (tested: 100 ng/mL) | no binding (tested: 100 ng/mL) | no binding (tested: 100 ng/mL) | no binding (tested: 100 ng/mL) | no binding (tested: 100 ng/mL) | no binding (tested: 100 ng/mL) | no binding (tested: 100 ng/mL) | no binding (tested: 100 ng/mL) | 853 | 0.155 | 181000 | 0.074 | 0.729 | 0.00203 | 2.78e+06 | 5.7 | 
humanized antibody #2B2 (mutations L234A, L235E and P331S) (antibody, human IgG1, kappa, #2B with L234A, L235E and P331S in the heavy chain constant region; also called Ab #2B2; #2B2 humanized mAb; copies: 2 + 2) heavy: QVQLVQSGAEVKKPGASVKVSCKASGYTFTNYWIHWVRQAPGQGLEWIGNIDPSDTRTHYNQKFKDRATLTVDKSTSTAYMELSSLRSEDTAVYYCARQTLYYEALDYWGQGTLVTVSSASTKGPSVFPLAPSSKSTSGGTAALGCLVKDYFPEPVTVSWNSGALTSGVHTFPAVLQSSGLYSLSSVVTVPSSSLGTQTYICNVNHKPSNTKVDKRVEPKSCDKTHTCPPCPAPEAEGGPSVFLFPPKPKDTLMISRTPEVTCVVVDVSHEDPEVKFNWYVDGVEVHNAKTKPREEQYNSTYRVVSVLTVLHQDWLNGKEYKCKVSNKALPASIEKTISKAKGQPREPQVYTLPPSREEMTKNQVSLTCLVKGFYPSDIAVEWESNGQPENNYKTTPPVLDSDGSFFLYSKLTVDKSRWQQGNVFSCSVMHEALHNHYTQKSLSLSPGK light: EIVMTQSPATLSVSPGERATLSCKASQDVSTAVAWYQQKPGQAPRLLIYWASTRHTGIPARFSGSRSGTEYTLTISSLQSEDFAVYYCQQDYSTPPTFGGGTKVEIKRTVAAPSVFIFPPSDEQLKSGTASVVCLLNNFYPREAKVQWKVDNALQSGNSQESVTEQDSKDSTYSLSSTLTLSKADYEKHKVYACEVTHQGLSSPVTKSFNRGEC | no binding (tested: 100 ng/mL) | no binding (tested: 100 ng/mL) | no binding (tested: 100 ng/mL) | no binding (tested: 100 ng/mL) | no binding (tested: 100 ng/mL) | no binding (tested: 100 ng/mL) | no binding (tested: 100 ng/mL) | no binding (tested: 100 ng/mL) | no binding (tested: 100 ng/mL) | 880 | 0.146 | 164000 | 0.079 | 0.796 | 0.00247 | 3.02e+06 | 4.7 | 
humanized antibody #2B (antibody, human IgG1, kappa, Humanized 14G9, IGHV1-46*01 version B heavy and IGKV3-15*01 version B light; also called Ab #2B; mAb #2B; copies: 2 + 2) heavy: not shown light: EIVMTQSPATLSVSPGERATLSCKASQDVSTAVAWYQQKPGQAPRLLIYWASTRHTGIPARFSGSRSGTEYTLTISSLQSEDFAVYYCQQDYSTPPTFGGGTKVEIKRTVAAPSVFIFPPSDEQLKSGTASVVCLLNNFYPREAKVQWKVDNALQSGNSQESVTEQDSKDSTYSLSSTLTLSKADYEKHKVYACEVTHQGLSSPVTKSFNRGEC |  |  |  |  |  |  |  |  |  | 785 | 0.142 | 176000 | 0.08 | 0.786 | 0.00225 | 2.89e+06 | 5.1 | EC50 for the restoration of the sPLA2-IB effect on IL-7 induced phosphoSTAT5 nuclear translocation in human CD4 T cells (75 nM sPLA2-GIB) [5]: 3.7 ng/mL; IC50 [6]: 341 nM; IC50 [7]: 2.3 nM; binding result (human FcγRIIIA(V176) [8]): binds; binding result (human FcγRI [9]): binds
